Sequences and labels used below:
B1: Ac-c[Lys-His-D-Phe-Arg-Trp-Asp]-Pro-Pro-His-Glu-Glu-Ser-Ser-Glu-Lys({2-[2-(16-carboxyhexadecanoylamino)ethoxy]ethoxy}acetyl)-NH2 (peptide)
peptide: Ac-KH[dF]RWDPPHEESSEK([AEEA-C17 diacid])-NH2
modifications: lactam 1-6
SMILES: CC(=O)N[C@H]1CCCCNC(=O)C[C@@H](C(=O)N2CCC[C@H]2C(=O)N2CCC[C@H]2C(=O)N[C@@H](Cc2c[nH]cn2)C(=O)N[C@@H](CCC(=O)O)C(=O)N[C@@H](CCC(=O)O)C(=O)N[C@@H](CO)C(=O)N[C@@H](CO)C(=O)N[C@@H](CCC(=O)O)C(=O)N[C@@H](CCCCNC(=O)COCCOCCNC(=O)CCCCCCCCCCCCCCCC(=O)O)C(N)=O)NC(=O)[C@H](Cc2c[nH]c3ccccc23)NC(=O)[C@H](CCCNC(=N)N)NC(=O)[C@@H](Cc2ccccc2)NC(=O)[C@H](Cc2c[nH]cn2)NC1=O
B2: Ac-c[homoCys-Gln-D-Phe-Arg-Trp-Cys]-Pro-Pro-Lys-Asp-Dap(BCMA)-Lys[(2-{2-[16-(tetrazol-5-yl)hexadecanoylamino]ethoxy}ethoxy)acetyl]-NH2 (peptide)
peptide: Ac-[hCys]Q[dF]RWCPPKD[Dap](NTA)K([AEEA-Palmitoyl(16-(5-tetrazolyl))])-NH2
modifications: disulfide 1-6
SMILES: CC(=O)N[C@H]1CCSSC[C@@H](C(=O)N2CCC[C@H]2C(=O)N2CCC[C@H]2C(=O)N[C@@H](CCCCN)C(=O)N[C@@H](CC(=O)O)C(=O)N[C@@H](CNC(=O)CN(CC(=O)O)CC(=O)O)C(=O)N[C@@H](CCCCNC(=O)COCCOCCNC(=O)CCCCCCCCCCCCCCCc2nnn[nH]2)C(N)=O)NC(=O)[C@H](Cc2c[nH]c3ccccc23)NC(=O)[C@H](CCCNC(=N)N)NC(=O)[C@@H](Cc2ccccc2)NC(=O)[C@H](CCC(N)=O)NC1=O
B3: Ac-c[homoCys-Hyp-D-Phe-Arg-Trp-Cys]-Pro-Pro-Lys-Asp-Dap(BCMA)-Lys[(2-{2-[16-(tetrazol-5-yl)hexadecanoylamino]ethoxy}ethoxy)acetyl]-NH2 (peptide)
peptide: Ac-[hCys][Hyp][dF]RWCPPKD[Dap](NTA)K([AEEA-Palmitoyl(16-(5-tetrazolyl))])-NH2
modifications: disulfide 1-6
SMILES: CC(=O)N[C@H]1CCSSC[C@@H](C(=O)N2CCC[C@H]2C(=O)N2CCC[C@H]2C(=O)N[C@@H](CCCCN)C(=O)N[C@@H](CC(=O)O)C(=O)N[C@@H](CNC(=O)CN(CC(=O)O)CC(=O)O)C(=O)N[C@@H](CCCCNC(=O)COCCOCCNC(=O)CCCCCCCCCCCCCCCc2nnn[nH]2)C(N)=O)NC(=O)[C@H](Cc2c[nH]c3ccccc23)NC(=O)[C@H](CCCNC(=N)N)NC(=O)[C@@H](Cc2ccccc2)NC(=O)[C@@H]2C[C@@H](O)CN2C1=O
B4: Ac-c[homoCys-His-D-Phe-Arg-Trp-Cys]-Pro-Pro-Lys-Asp-Lys(BCMA)-Lys[(2-{2-[16-(tetrazol-5-yl)hexadecanoylamino]ethoxy}ethoxy)acetyl]-NH2 (peptide)
peptide: Ac-[hCys]H[dF]RWCPPKDK(NTA)K([AEEA-Palmitoyl(16-(5-tetrazolyl))])-NH2
modifications: disulfide 1-6
SMILES: CC(=O)N[C@H]1CCSSC[C@@H](C(=O)N2CCC[C@H]2C(=O)N2CCC[C@H]2C(=O)N[C@@H](CCCCN)C(=O)N[C@@H](CC(=O)O)C(=O)N[C@@H](CCCCNC(=O)CN(CC(=O)O)CC(=O)O)C(=O)N[C@@H](CCCCNC(=O)COCCOCCNC(=O)CCCCCCCCCCCCCCCc2nnn[nH]2)C(N)=O)NC(=O)[C@H](Cc2c[nH]c3ccccc23)NC(=O)[C@H](CCCNC(=N)N)NC(=O)[C@@H](Cc2ccccc2)NC(=O)[C@H](Cc2c[nH]cn2)NC1=O
B5: Ac-c[Cys-Glu-His-D-Phe-Arg-Trp-Cys]-Pro-Pro-Lys-Glu-Lys(biscarboxymethyl)-Lys[(2-{2-[16-(tetrazol-5-yl)hexadecanoylamino]ethoxy}ethoxy)acetyl]-NH2 (peptide)
peptide: Ac-CEH[dF]RWCPPKE[Lys(CH2CO2H)2]K([AEEA-Palmitoyl(16-(5-tetrazolyl))])-NH2
modifications: disulfide 1-7
SMILES: CC(=O)N[C@H]1CSSC[C@@H](C(=O)N2CCC[C@H]2C(=O)N2CCC[C@H]2C(=O)N[C@@H](CCCCN)C(=O)N[C@@H](CCC(=O)O)C(=O)N[C@@H](CCCCN(CC(=O)O)CC(=O)O)C(=O)N[C@@H](CCCCNC(=O)COCCOCCNC(=O)CCCCCCCCCCCCCCCc2nnn[nH]2)C(N)=O)NC(=O)[C@H](Cc2c[nH]c3ccccc23)NC(=O)[C@H](CCCNC(=N)N)NC(=O)[C@@H](Cc2ccccc2)NC(=O)[C@H](Cc2c[nH]cn2)NC(=O)[C@H](CCC(=O)O)NC1=O
B6: Ac-c[Lys-His-D-Phe-Arg-Trp-Asp]-Pro-Pro-His-Glu-Lys(biscarboxymethyl)-Lys({2-[2-(16-carboxyhexadecanoylamino)ethoxy]ethoxy}acetyl)-NH2 (peptide)
peptide: Ac-KH[dF]RWDPPHE[Lys(CH2CO2H)2]K([AEEA-C17 diacid])-NH2
modifications: lactam 1-6
SMILES: CC(=O)N[C@H]1CCCCNC(=O)C[C@@H](C(=O)N2CCC[C@H]2C(=O)N2CCC[C@H]2C(=O)N[C@@H](Cc2c[nH]cn2)C(=O)N[C@@H](CCC(=O)O)C(=O)N[C@@H](CCCCN(CC(=O)O)CC(=O)O)C(=O)N[C@@H](CCCCNC(=O)COCCOCCNC(=O)CCCCCCCCCCCCCCCC(=O)O)C(N)=O)NC(=O)[C@H](Cc2c[nH]c3ccccc23)NC(=O)[C@H](CCCNC(=N)N)NC(=O)[C@@H](Cc2ccccc2)NC(=O)[C@H](Cc2c[nH]cn2)NC1=O
B7: Ac-c[Cys-Glu-His-D-Phe-Arg-Trp-Gly-Cys]-Pro-Pro-Lys-Glu-Lys(biscarboxymethyl)-Lys({2-[2-(15-carboxypentadecanoylamino)ethoxy]ethoxy}acetyl)-NH2 (peptide)
peptide: Ac-CEH[dF]RWGCPPKE[Lys(CH2CO2H)2]K([AEEA-C16 diacid])-NH2
modifications: disulfide 1-8
SMILES: CC(=O)N[C@H]1CSSC[C@@H](C(=O)N2CCC[C@H]2C(=O)N2CCC[C@H]2C(=O)N[C@@H](CCCCN)C(=O)N[C@@H](CCC(=O)O)C(=O)N[C@@H](CCCCN(CC(=O)O)CC(=O)O)C(=O)N[C@@H](CCCCNC(=O)COCCOCCNC(=O)CCCCCCCCCCCCCCC(=O)O)C(N)=O)NC(=O)CNC(=O)[C@H](Cc2c[nH]c3ccccc23)NC(=O)[C@H](CCCNC(=N)N)NC(=O)[C@@H](Cc2ccccc2)NC(=O)[C@H](Cc2c[nH]cn2)NC(=O)[C@H](CCC(=O)O)NC1=O
B8: Ac-c[Lys-His-D-Phe-Arg-Trp-Asp]-Pro-Ser-Ser-Ser-Lys(biscarboxymethyl)-Ser-Ser-NH(2-{2-[2-(17-carboxyheptadecanoylamino)ethoxy]ethoxy}ethyl) (peptide)
peptide: Ac-KH[dF]RWDPSSS[Lys(CH2CO2H)2]SS-X5
modifications: lactam 1-6
SMILES: CC(=O)N[C@H]1CCCCNC(=O)C[C@@H](C(=O)N2CCC[C@H]2C(=O)N[C@@H](CO)C(=O)N[C@@H](CO)C(=O)N[C@@H](CO)C(=O)N[C@@H](CCCCN(CC(=O)O)CC(=O)O)C(=O)N[C@@H](CO)C(=O)N[C@@H](CO)C(=O)NCCOCCOCCNC(=O)CCCCCCCCCCCCCCCCC(=O)O)NC(=O)[C@H](Cc2c[nH]c3ccccc23)NC(=O)[C@H](CCCNC(=N)N)NC(=O)[C@@H](Cc2ccccc2)NC(=O)[C@H](Cc2c[nH]cn2)NC1=O
B9: Ac-c[homoCys-His-D-Phe-Arg-Trp-Cys]-Pro-Pro-Lys-Asp-Dap(BCMA)-Lys[(2-{2-[16-(tetrazol-5-yl)hexadecanoylamino]ethoxy}ethoxy)acetyl]-OH (peptide)
peptide: Ac-[hCys]H[dF]RWCPPKD[Dap](NTA)K([AEEA-Palmitoyl(16-(5-tetrazolyl))])-OH
modifications: disulfide 1-6
SMILES: CC(=O)N[C@H]1CCSSC[C@@H](C(=O)N2CCC[C@H]2C(=O)N2CCC[C@H]2C(=O)N[C@@H](CCCCN)C(=O)N[C@@H](CC(=O)O)C(=O)N[C@@H](CNC(=O)CN(CC(=O)O)CC(=O)O)C(=O)N[C@@H](CCCCNC(=O)COCCOCCNC(=O)CCCCCCCCCCCCCCCc2nnn[nH]2)C(=O)O)NC(=O)[C@H](Cc2c[nH]c3ccccc23)NC(=O)[C@H](CCCNC(=N)N)NC(=O)[C@@H](Cc2ccccc2)NC(=O)[C@H](Cc2c[nH]cn2)NC1=O
B10: Ac-c[homoCys-His-D-Phe-Arg-Trp-Cys]-Pro-Pro-Lys-Asp-Dap(BCMA)-Lys({2-[2-(13-carboxytridecanoylamino)ethoxy]ethoxy}acetyl)-NH2 (peptide)
peptide: Ac-[hCys]H[dF]RWCPPKD[Dap](NTA)K([AEEA-C14 diacid])-NH2
modifications: disulfide 1-6
SMILES: CC(=O)N[C@H]1CCSSC[C@@H](C(=O)N2CCC[C@H]2C(=O)N2CCC[C@H]2C(=O)N[C@@H](CCCCN)C(=O)N[C@@H](CC(=O)O)C(=O)N[C@@H](CNC(=O)CN(CC(=O)O)CC(=O)O)C(=O)N[C@@H](CCCCNC(=O)COCCOCCNC(=O)CCCCCCCCCCCCC(=O)O)C(N)=O)NC(=O)[C@H](Cc2c[nH]c3ccccc23)NC(=O)[C@H](CCCNC(=N)N)NC(=O)[C@@H](Cc2ccccc2)NC(=O)[C@H](Cc2c[nH]cn2)NC1=O

Positions of bridges follow the written chain, without caps; N, C: chain ends. Non-standard residues stand in square brackets, D forms with d. Groups on a side chain read outwards from the residue. Primed or numbered codes have the meaning given here. *: point of attachment. X2 = (2-(2-(16-(tetrazol-5-yl)hexadecanoylamino)ethoxy)ethoxy)acetyl, O=C(CCCCCCCCCCCCCCCc1nn[nH]n1)NCCOCCOCC(=O)*; X5 = NH(2-(2-(2-(17-carboxyheptadecanoylamino)ethoxy)ethoxy)ethyl), O=C(O)CCCCCCCCCCCCCCCCC(=O)NCCOCCOCCN*; biscarboxymethyl = Lys(biscarboxymethyl) = Nepsilon-bis(carboxymethyl)-L-lysine; bis(carboxymethyl) = Lys(biscarboxymethyl) = N6-bis(carboxymethyl)-L-lysine; Palmitoyl(16-(5-tetrazolyl)) = O=C(CCCCCCCCCCCCCCCc1nnn[nH]1)*; biscarboxymethyl(3) = Nepsilon-bis(carboxymethyl) on Lys; Lys(CH2CO2H)2 = N[C@@H](CCCCN(CC(=O)O)CC(=O)O)C(=O)O; C17 diacid = O=C(O)CCCCCCCCCCCCCCCC(=O)*; C16 diacid = O=C(O)CCCCCCCCCCCCCCC(=O)*; C14 diacid = O=C(O)CCCCCCCCCCCCC(=O)*; Hyp = O=C(O)[C@@H]1C[C@@H](O)CN1; NTA = O=C(O)CN(CC(=O)O)CC(=O)*; hCys = N[C@@H](CCS)C(=O)O; Orn = NCCC[C@H](N)C(=O)O; Dab = NCC[C@H](N)C(=O)O; Dap = NC[C@H](N)C(=O)O; AEEA = NCCOCCOCC(=O)O

This note sets out measurements from patent US20130012432A1 (Novo Nordisk, published 2013).

One may read the Ki as a measure of affinity in units of concentration, obtained from inhibition or displacement.

The assay deals with T1, human MC4 receptor (human, UniProt P32245 1-332).
T1 construct: whole, on cells; Assayed as membranes of BHK cells stably expressing the receptor; also called melanocortin receptor subtype 4; melanocortin receptor 4
T1 sequence (P32245 whole entry): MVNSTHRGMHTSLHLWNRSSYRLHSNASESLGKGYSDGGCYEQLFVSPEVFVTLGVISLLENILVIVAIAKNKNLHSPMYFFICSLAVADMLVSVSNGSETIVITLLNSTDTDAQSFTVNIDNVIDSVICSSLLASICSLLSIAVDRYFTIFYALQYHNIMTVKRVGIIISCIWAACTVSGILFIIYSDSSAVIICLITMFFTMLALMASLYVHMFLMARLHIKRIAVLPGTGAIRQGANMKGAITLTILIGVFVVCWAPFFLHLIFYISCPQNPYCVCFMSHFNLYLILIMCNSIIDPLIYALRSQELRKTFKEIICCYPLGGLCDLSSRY
The assay can be described thus: 125I-NDP-α-MSH displacement, BHK-human MC4 membranes (Assay V).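 Note: Filter-retained radioactivity read by gamma counting, with affinity obtained through non-linear regression fitting of the binding curves.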
Method: The membranes were prepared from frozen or fresh cells that were homogenized in 20 mM HEPES pH 7.1, 5 mM MgCl₂ and 1 mg/ml bacitracin and centrifuged at 15000 rpm at 4° C., 10 min in a Sorvall RC 5B plus, SS-34 rotor. The supernatant was discarded, and the pellets were re-suspended in buffer, homogenized and centrifuged two more times. The final pellets were resuspended in the buffer mentioned above, and the protein concentration was measured and adjusted with buffer to 14 to 17 mg/ml and the membrane preparation were kept at −80° C. until assay. The assay was run directly on a dilution of this cell membrane suspension, without any further preparation. The BHK cell membranes are kept at −80° C. until assay, and the assay is run directly on a dilution of this cell membrane suspension, without further preparation. The suspension is diluted to give maximally 10% specific binding, i.e. to approx. 50-100 fold dilution. […] Test compounds were dissolved in DMSO and diluted in binding buffer. Radiolabelled ligand and membranes were diluted in binding buffer. The incubation was stopped by dilution with 2×100 μl ice-cold 0.9% NaCl. The radioactivity retained on the filters was counted using a Cobra II auto gamma counter.
The data were analysed by non-linear regression analysis of binding curves, using the Windows™ program GraphPad™ Prism (GraphPad Software, USA).
Turning to B1, the inhibition constant (Ki) came to 30 nM. Molecule B2 gave an inhibition constant (Ki) of 1.06 nM. For B3 the value was 0.62 nM. For Ac-[hCys]H[dF]RWCPPKEK(bis(carboxymethyl))K([AEEA-C16 diacid])-NH2 (disulfide 1-6) the value was 17 nM; for B4, 0.4 nM; for Ac-[hCys]H[dF]RWCPPSEK(bis(carboxymethyl))K([AEEA-C16 diacid])-NH2 (disulfide 1-6), 70 nM. In turn, B5 registered an inhibition constant Ki of 15 nM. Molecule Ac-[Orn]H[dF]RWEPSSSK(bis(carboxymethyl))SSK([AEEA-C17 diacid])-NH2 (lactam 1-6) showed an inhibition constant (Ki) of 6.35 nM. Turning to Ac-EH[dF]RW[Dap]PPRDK(biscarboxymethyl(3))K([AEEA-Palmitoyl(16-(5-tetrazolyl))])-NH2 (lactam 1-6), the Ki is 13 nM. Ac-DH[dF]RW[Dap]PPRDK(biscarboxymethyl(3))K([AEEA-Palmitoyl(16-(5-tetrazolyl))])-NH2 (lactam 1-6) gave a Ki of 71.5 nM. In turn, B6 gave a Ki of 17 nM. The molecule B7 gave an inhibition constant (Ki) of 55 nM. For the molecule B8, affinity was put at a Ki of 2.75 nM.

Turning to B9, the Ki was determined as 6.4 nM. The molecule Ac-[Dab]H[dF]RWDPPREK(biscarboxymethyl(3))K([AEEA-Palmitoyl(16-(5-tetrazolyl))])-NH2 (lactam 1-6) had an inhibitory constant (Ki) of 8.45 nM. Ac-[Orn]H[dF]RWEPPHEK(bis(carboxymethyl))K([AEEA-C17 diacid])-NH2 (lactam 1-6) registered a Ki of 21.5 nM. Consider Ac-[Dab]H[dF]RWDPPHEK(biscarboxymethyl(3))K([AEEA-Palmitoyl(16-(5-tetrazolyl))])-NH2 (lactam 1-6), for which the Ki was found to be 76 nM. In the case of Ac-[Orn]H[dF]RWDPPHEK(biscarboxymethyl)K(X2)-NH2 (lactam 1-6), the Ki amounted to 1.43 nM.

As for Ac-[Dab]H[dF]RWEPPRDK(biscarboxymethyl(3))K([AEEA-Palmitoyl(16-(5-tetrazolyl))])-NH2 (lactam 1-6), the inhibitory constant (Ki) was 107 nM. In turn, B10 showed a Ki of 4.2 nM.
